In patent publication US20260184748A1 (University of Pennsylvania, published 2026):
Where no end group is shown, it is not given here.

How the values were obtained:
Test in all cases: cell-based or functional assay
CCR10 = molecular target: T1, CCR10 (UniProt P46092 1-362)
T1 sequence (looked up): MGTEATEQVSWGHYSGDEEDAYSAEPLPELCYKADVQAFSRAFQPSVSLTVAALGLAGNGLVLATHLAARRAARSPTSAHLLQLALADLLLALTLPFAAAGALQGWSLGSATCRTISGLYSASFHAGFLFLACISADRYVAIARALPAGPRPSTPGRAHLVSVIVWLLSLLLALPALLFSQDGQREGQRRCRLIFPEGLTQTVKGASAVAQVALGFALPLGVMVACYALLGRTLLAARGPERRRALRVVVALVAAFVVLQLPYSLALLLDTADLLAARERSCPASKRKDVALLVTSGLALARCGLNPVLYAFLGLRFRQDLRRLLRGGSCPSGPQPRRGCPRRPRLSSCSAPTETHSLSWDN

PTGFR = PTGFR (UniProt P43088 1-359)
DRD3 = DRD3 (UniProt P35462 1-400)
GRPR = GRPR (UniProt P30550 1-384)
PPYR1 = PPYR1 (UniProt P50391 1-375)
EDG6 = molecular target: T2, EDG6 (UniProt O95977 1-384)
T2 sequence (looked up): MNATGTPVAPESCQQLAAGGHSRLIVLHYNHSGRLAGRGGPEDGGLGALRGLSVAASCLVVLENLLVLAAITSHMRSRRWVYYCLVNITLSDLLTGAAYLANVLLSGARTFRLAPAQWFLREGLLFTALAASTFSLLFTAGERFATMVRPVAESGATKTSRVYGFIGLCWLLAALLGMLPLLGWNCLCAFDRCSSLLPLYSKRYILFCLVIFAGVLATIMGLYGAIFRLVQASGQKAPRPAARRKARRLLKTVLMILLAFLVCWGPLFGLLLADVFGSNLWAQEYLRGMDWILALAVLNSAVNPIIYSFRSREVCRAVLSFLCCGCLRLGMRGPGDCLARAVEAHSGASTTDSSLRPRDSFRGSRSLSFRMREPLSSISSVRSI

CALCR-RAMP3 = molecular target: T3, CALCR-RAMP3 (UniProt P30988 25-474; O60896 24-148, limits assumed)
T3 sequence (looked up) 1: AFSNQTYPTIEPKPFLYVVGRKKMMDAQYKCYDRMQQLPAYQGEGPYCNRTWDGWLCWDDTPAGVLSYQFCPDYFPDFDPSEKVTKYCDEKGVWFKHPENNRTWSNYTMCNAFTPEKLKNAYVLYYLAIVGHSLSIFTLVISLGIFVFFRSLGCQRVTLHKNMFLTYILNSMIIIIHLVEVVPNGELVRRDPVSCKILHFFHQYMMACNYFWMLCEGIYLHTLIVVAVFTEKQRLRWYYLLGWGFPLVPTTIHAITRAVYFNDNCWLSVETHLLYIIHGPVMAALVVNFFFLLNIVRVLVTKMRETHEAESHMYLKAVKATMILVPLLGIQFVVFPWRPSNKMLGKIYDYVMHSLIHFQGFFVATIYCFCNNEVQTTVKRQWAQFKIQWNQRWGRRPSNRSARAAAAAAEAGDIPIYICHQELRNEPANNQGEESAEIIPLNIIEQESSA
T3 sequence (looked up) 2: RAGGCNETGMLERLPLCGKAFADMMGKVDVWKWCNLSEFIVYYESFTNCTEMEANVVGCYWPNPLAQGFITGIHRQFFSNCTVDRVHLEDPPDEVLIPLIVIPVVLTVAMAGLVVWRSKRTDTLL

TACR1 = TACR1 (UniProt P25103 1-407)
HTR1E = HTR1E (UniProt P28566 1-365)
VIPR1 = molecular target: T4, VIPR1 (UniProt P32241 31-457)
T4 sequence (looked up): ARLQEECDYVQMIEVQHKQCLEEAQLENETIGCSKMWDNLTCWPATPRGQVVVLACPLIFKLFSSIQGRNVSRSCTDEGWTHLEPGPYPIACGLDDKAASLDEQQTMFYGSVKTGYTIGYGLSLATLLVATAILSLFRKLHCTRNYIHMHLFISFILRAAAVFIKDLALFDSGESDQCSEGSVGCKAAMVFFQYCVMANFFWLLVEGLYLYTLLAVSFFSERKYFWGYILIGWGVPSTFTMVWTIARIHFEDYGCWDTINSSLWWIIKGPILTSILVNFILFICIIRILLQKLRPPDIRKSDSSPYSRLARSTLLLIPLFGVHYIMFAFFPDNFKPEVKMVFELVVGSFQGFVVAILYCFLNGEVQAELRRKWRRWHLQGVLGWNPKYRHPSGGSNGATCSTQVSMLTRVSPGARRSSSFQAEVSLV

HCRTR2 = molecular target: T5, HCRTR2 (UniProt O43614 1-444)
T5 sequence (looked up): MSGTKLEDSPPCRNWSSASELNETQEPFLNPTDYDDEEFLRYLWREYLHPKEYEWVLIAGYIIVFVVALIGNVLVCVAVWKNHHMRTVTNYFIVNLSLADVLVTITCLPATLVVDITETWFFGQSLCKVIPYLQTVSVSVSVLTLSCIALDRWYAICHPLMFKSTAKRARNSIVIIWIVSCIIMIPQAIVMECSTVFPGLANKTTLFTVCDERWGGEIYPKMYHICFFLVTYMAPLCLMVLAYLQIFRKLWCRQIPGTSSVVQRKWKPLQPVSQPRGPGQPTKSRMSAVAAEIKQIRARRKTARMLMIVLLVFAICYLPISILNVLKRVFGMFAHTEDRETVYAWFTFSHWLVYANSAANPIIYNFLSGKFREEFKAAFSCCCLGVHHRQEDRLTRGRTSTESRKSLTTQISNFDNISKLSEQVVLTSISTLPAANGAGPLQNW

Chain of DRD3 (P35462 whole entry): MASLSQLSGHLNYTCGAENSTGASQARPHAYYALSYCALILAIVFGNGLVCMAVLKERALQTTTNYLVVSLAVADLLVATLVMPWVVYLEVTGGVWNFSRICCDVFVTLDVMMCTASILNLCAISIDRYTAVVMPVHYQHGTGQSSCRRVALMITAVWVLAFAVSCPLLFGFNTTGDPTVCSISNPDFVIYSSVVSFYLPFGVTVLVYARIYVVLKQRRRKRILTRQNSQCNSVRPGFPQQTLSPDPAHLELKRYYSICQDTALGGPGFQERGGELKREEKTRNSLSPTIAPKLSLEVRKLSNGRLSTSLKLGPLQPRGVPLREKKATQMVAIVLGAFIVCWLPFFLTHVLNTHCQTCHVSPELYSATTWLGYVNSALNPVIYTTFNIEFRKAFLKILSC
Chain of TACR1 (P25103 whole entry): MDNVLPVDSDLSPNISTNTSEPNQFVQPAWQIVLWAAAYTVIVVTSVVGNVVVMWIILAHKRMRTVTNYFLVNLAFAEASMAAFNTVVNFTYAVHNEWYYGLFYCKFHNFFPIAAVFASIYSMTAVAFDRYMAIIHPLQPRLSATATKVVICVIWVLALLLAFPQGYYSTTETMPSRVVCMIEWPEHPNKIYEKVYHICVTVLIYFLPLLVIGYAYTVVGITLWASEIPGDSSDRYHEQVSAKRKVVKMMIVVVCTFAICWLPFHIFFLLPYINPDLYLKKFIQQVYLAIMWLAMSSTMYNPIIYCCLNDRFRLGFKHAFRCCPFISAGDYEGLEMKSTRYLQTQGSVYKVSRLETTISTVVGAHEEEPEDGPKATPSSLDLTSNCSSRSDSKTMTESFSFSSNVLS
Chain of PPYR1 (P50391 whole entry): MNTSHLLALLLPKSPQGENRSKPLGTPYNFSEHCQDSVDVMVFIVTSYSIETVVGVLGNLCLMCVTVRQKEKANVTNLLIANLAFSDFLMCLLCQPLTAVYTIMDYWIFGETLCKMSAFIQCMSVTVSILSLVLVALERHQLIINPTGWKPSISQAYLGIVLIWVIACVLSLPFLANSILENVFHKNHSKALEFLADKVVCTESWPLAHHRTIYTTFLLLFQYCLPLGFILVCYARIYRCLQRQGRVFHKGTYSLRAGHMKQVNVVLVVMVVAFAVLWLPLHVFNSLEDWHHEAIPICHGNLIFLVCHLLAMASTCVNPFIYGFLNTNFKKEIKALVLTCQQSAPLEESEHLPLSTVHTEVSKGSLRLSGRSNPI
Chain of HTR1E (P28566 whole entry): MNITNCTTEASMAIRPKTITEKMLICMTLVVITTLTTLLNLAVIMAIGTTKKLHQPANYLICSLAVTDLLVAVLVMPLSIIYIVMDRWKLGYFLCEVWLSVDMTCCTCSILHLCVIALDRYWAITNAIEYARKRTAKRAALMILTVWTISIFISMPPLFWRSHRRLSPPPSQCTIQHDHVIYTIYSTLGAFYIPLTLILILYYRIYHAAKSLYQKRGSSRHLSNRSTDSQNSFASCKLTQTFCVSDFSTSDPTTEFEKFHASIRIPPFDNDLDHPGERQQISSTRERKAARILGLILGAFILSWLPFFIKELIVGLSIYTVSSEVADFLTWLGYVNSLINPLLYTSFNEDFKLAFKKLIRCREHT
Chain of PTGFR (P43088 whole entry): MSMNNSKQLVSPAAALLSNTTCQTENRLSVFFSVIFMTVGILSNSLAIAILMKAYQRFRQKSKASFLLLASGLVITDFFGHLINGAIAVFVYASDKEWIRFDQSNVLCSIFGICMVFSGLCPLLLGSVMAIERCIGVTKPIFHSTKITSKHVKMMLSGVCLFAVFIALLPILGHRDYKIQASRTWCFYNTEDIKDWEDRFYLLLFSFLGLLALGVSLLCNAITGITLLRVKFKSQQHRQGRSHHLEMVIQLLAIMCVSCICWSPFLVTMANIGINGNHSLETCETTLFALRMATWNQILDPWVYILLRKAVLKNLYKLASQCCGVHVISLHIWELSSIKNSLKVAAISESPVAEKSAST
Chain of GRPR (P30550 whole entry): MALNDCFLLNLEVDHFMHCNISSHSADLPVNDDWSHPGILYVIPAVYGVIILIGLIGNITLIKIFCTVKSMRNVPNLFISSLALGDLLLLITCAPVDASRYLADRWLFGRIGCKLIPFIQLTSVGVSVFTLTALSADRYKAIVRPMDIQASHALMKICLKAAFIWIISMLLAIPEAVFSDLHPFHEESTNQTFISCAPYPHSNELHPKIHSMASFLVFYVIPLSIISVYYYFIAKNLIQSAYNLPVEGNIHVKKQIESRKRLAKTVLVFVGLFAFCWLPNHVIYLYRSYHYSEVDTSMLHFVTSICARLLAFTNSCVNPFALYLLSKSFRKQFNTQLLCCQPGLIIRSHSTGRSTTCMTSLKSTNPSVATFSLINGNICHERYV

QATVGDVNTDRPGLLDLK (also: synthesised on Rink amide resin, C-terminal amide not given here outright) [octadecaneuropeptide (ODN)]
% Activity, arrestin, antagonist mode, 2.5 uM (CCR10): -16.6% | % Activity, arrestin, antagonist mode, 2.5 uM (PTGFR): -8.4% | % Activity, arrestin, antagonist mode, 2.5 uM (DRD3): -1% | % Activity, arrestin, antagonist mode, 2.5 uM (GRPR): -12.2% | % Activity, arrestin, antagonist mode, 2.5 uM (PPYR1): -11.4% | % Activity, arrestin, antagonist mode, 2.5 uM (EDG6): 4.5% | % Activity, arrestin, antagonist mode, 2.5 uM (CALCR-RAMP3): -0.1% | % Activity, arrestin, antagonist mode, 2.5 uM (TACR1): -17.6% | % Activity, arrestin, antagonist mode, 2.5 uM (HTR1E): -3.8% | % Activity, arrestin, antagonist mode, 2.5 uM (VIPR1): -11.6% | % Activity, arrestin, antagonist mode, 2.5 uM (HCRTR2): -2.7%
